In the supplement of paper PMC10567573:

B1: RHOBTB3 (parent)
chain: DSCCPAGIFQAMCLLICAEMYQVS

Variants of: B1
Test: protein stability index of a GFP-peptide fusion (GPS, HEK-293T) (PSI 1-6); higher = more stable
Settings: c terminus: a fixed tail appended
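Further: lentivirally expressed fusions sorted by FACS into six bins by GFP to DsRed ratio, PSI derived from sequencing read proportions per bin multiplied by bin number.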

Variant | protein stability index
RSCCPAGIFQAMCLLICAEMYQVS [D1R] | 2.64
PSCCPAGIFQAMCLLICAEMYQVS [D1P] | 1.89
SSCCPAGIFQAMCLLICAEMYQVS [D1S] | 2.77
TSCCPAGIFQAMCLLICAEMYQVS [D1T] | 3.52
DSCCPAGIEQAMCLLICAEMYQVS [F9E] | 4.01
DSCCPAGIAQAMCLLICAEMYQVS [F9A] | 2.97
DSCCPAGIPQAMCLLICAEMYQVS [F9P] | 1.51
DSCCPAGIDQAMCLLICAEMYQVS [F9D] | 1.51
DSCCPAGIFQAMCLLICAEMYQKS [V23K] | 2.33
DSCCPAGIFQAMCLLICAEMYQPS [V23P] | 2.88
DSCCPAGIFQAMCLLICAEMYQCS [V23C] | 3.74
DSCCPAGIFQAMCLLICAEMYQIS [V23I] | 4.12
DSCCPAGIFQAMCLLICAEMYQWS [V23W] | 3.16
DSCCPAGIFQAMCLLICAEMYQDS [V23D] | 1.45
DSCCPAGIFQKMCLLICAEMYQVS [A11K] | 1.32
DSCCPAGIFQYMCLLICAEMYQVS [A11Y] | 3.96
DSCCPAGIFQCMCLLICAEMYQVS [A11C] | 2.69
DSCCPAGIFQIMCLLICAEMYQVS [A11I] | 2.4
DSCFPAGIFQAMCLLICAEMYQVS [C4F] | 2.94
DSCPPAGIFQAMCLLICAEMYQVS [C4P] | 2.84
DSCQPAGIFQAMCLLICAEMYQVS [C4Q] | 2.56
DSCMPAGIFQAMCLLICAEMYQVS [C4M] | 4
DSCTPAGIFQAMCLLICAEMYQVS [C4T] | 2.08
DSCVPAGIFQAMCLLICAEMYQVS [C4V] | 2.88

Variant | protein stability index
DSCHPAGIFQAMCLLICAEMYQVS [C4H] | 4.64
DSCGPAGIFQAMCLLICAEMYQVS [C4G] | 2.06
DSCCPPGIFQAMCLLICAEMYQVS [A6P] | 2.76
DSCCPMGIFQAMCLLICAEMYQVS [A6M] | 4.16
DSCCPTGIFQAMCLLICAEMYQVS [A6T] | 2.9
DSCCPKGIFQAMCLLICAEMYQVS [A6K] | 3.98
DSCCPCGIFQAMCLLICAEMYQVS [A6C] | 3.25
DSCCPVGIFQAMCLLICAEMYQVS [A6V] | 3.18
DSCCPLGIFQAMCLLICAEMYQVS [A6L] | 2
DSCCPIGIFQAMCLLICAEMYQVS [A6I] | 2.76
DSCCPAYIFQAMCLLICAEMYQVS [G7Y] | 2.8
DSCCPAHIFQAMCLLICAEMYQVS [G7H] | 2.75
DSCCPAIIFQAMCLLICAEMYQVS [G7I] | 3.28
DSCCPAEIFQAMCLLICAEMYQVS [G7E] | 1.72
DSCCPAFIFQAMCLLICAEMYQVS [G7F] | 2.49
DSCCPANIFQAMCLLICAEMYQVS [G7N] | 2.19
DSCCPAGIFQAQCLLICAEMYQVS [M12Q] | 2.04
DSCCPAGIFQAYCLLICAEMYQVS [M12Y] | 2.9
DSCCPAGIFQAMCLLICAEMYQVL [S24L] | 3.43
DSCCPAGIFQAMCLLICAEMYQVA [S24A] | 3.22
DSCCPAGIFQAMCLLICAEMYQVN [S24N] | 3.14
DSCCPAGIFQAMCLLICAEMYQVI [S24I] | 1.96
DSCCPAGIFQAMCLLICAEMYQVT [S24T] | 3.71
DSCCPAGIFQAMCLLICAEMYQVP [S24P] | 4.65

Variant | protein stability index
DSCCPAGIFQAMCLLICAEMYQVK [S24K] | 3.25
DSCCPAGIFQAMCLLICAEMYQVF [S24F] | 2.53
DSCCPAGIFQAMCLLICAEMYQVY [S24Y] | 3.56
DSCCPAGIFQAMCLLICAEMYQVG [S24G] | 2.36
DSCCPAGIFQAMCLLICAEMYQVQ [S24Q] | 3.86
DSCCPAGIFQAMCLLICAEMYQVC [S24C] | 2.39
DSCCPAGIFQAMCLLICAEMYQVM [S24M] | 1.94
DSCCPAGIFQAMCLLICAEMIQVS [Y21I] | 4.41
DSCCPAGIFQAMCLLICAEMKQVS [Y21K] | 1.9
DSCCPAGIFQAMCLLICAEMRQVS [Y21R] | 2.92
DSCCPAGIFQAMCLLICAEMGQVS [Y21G] | 3.18
DSCCPAGIFQAMCLLICAEMEQVS [Y21E] | 2.38
DSSCPAGIFQAMCLLICAEMYQVS [C3S] | 3.1
DSTCPAGIFQAMCLLICAEMYQVS [C3T] | 1.39
DSRCPAGIFQAMCLLICAEMYQVS [C3R] | 2.33
DSKCPAGIFQAMCLLICAEMYQVS [C3K] | 3.1
DSHCPAGIFQAMCLLICAEMYQVS [C3H] | 1.02
DSPCPAGIFQAMCLLICAEMYQVS [C3P] | 2.93
DSACPAGIFQAMCLLICAEMYQVS [C3A] | 3.18
DSCCPAGIFQAMPLLICAEMYQVS [C13P] | 2.42
DSCCPAGIFQAMHLLICAEMYQVS [C13H] | 2.4
DSCCPAGIFQAMWLLICAEMYQVS [C13W] | 3.35
DSCCPAGIFQAMILLICAEMYQVS [C13I] | 4.59
DSCCPAGIFQAMNLLICAEMYQVS [C13N] | 3.63

Variant | protein stability index
DSCCPAGIFQAMQLLICAEMYQVS [C13Q] | 4.88
DSCCPAGIFQAMALLICAEMYQVS [C13A] | 3.91
DSCCPAGIFQAMYLLICAEMYQVS [C13Y] | 2.77
DSCCPAGIFQAMCLLICANMYQVS [E19N] | 2.31
DSCCPAGIFQAMCLLICAMMYQVS [E19M] | 1.55
DSCCPAGIFQAMCLLICADMYQVS [E19D] | 2.72
DSCCPAGIFQAMCLLICAGMYQVS [E19G] | 2.99
DSCCPAGIFQAMCLLICALMYQVS [E19L] | 5.4
DSCCPAGIFQAMCLLICAVMYQVS [E19V] | 3.28
DSCCPAGIFQAMCLLICAAMYQVS [E19A] | 2.92
DSCCPAGIFQAMCLLICAKMYQVS [E19K] | 2.48
DSCCPAGIFQAMCLLICASMYQVS [E19S] | 2.06
DSCCHAGIFQAMCLLICAEMYQVS [P5H] | 3.17
DSCCIAGIFQAMCLLICAEMYQVS [P5I] | 2.61
DSCCNAGIFQAMCLLICAEMYQVS [P5N] | 3.01
DSCCKAGIFQAMCLLICAEMYQVS [P5K] | 2.16
DSCCLAGIFQAMCLLICAEMYQVS [P5L] | 2.87
DSCCAAGIFQAMCLLICAEMYQVS [P5A] | 1.65
DSCCPAGIFQAMCELICAEMYQVS [L14E] | 3.59
DSCCPAGIFQAMCALICAEMYQVS [L14A] | 3.65
DSCCPAGIFQAMCILICAEMYQVS [L14I] | 2.24
DSCCPAGIFQAMCTLICAEMYQVS [L14T] | 2.78
